We go through seven molecules from US20250243265A1 (published 2025).

First the molecules themselves.
B1: 1F11/2H5/3F5 triple mutant IgG (antibody, name in Kabat numbering, V domains shown)
VH: EVQLVESGGGLVQPGGSLRLSCAASGFTFSNTYISWVRQAPGKGLEWVASITPSSGQTDYADSVKGRFTISADTSKNTAYLQMNSLRAEDTAVYYCARTWLLRWVMDYWGQGTLVTVSS
VL: DIQMTQSPSSLSASVGDRVTITCRASQDVSTAVAWYQQKPGKAPKLLIYSAKFLYSGVPSRFSGSGSGTDFTLTISSLQPEDFATYYCQQSYTNPPTFGQGTKVEIK
notes: S52K put into the 2H5 light chain, paired with the 3F5 heavy chain; human kappa IgG1
B2: 1F11/Y102L IgG (antibody, V domains shown)
VH: B1 VH with Q57S, Y108L
VL: B1 VL with N94T
notes: Human kappa IgG1
B3: 1F11/2C11/3F5 triple mutant IgG (antibody, name in Kabat numbering, V domains shown)
VH: B1 VH
VL: B1 VL with N94Q
notes: S52K put into the 2C11 light chain, paired with the 3F5 heavy chain; human kappa IgG1
B4: 3F5/Y102L T110A IgG (antibody, name in Kabat numbering, V domains shown)
VH: B1 VH with Y108L, T116A
VL: B1 VL with K52S, N94T
notes: Human kappa IgG1
B5: 1F11/Y102L T110A IgG (antibody, name in Kabat numbering, V domains shown)
VH: B1 VH with Q57S, Y108L, T116A
VL: B1 VL with N94T
notes: Human kappa IgG1
B6: 3F5/Y102L IgG (antibody, name in Kabat numbering, V domains shown)
VH: B1 VH with Y108L
VL: B1 VL with K52S, N94T
notes: Human kappa IgG1
B7: 1F11 IgG (antibody, V domains shown)
VH: B1 VH with Q57S
VL: B1 VL with N94T

Where a chain is given by its changes, count along the chain named. Numbers in names are those of the source.

For one test, the target named is linear diubiquitin (Boston Biochem) (Homo sapiens (Human), UniProt P0CG48 1-152). Description: western blot, 1 µg/mL IgG.
For the molecule B1, the binding result is reported as “binds”.
As for B2, the binding result is given as “binds”.
Same read-out and setting: under B3 stands “binds”; under B4, “binds”; under B5, “binds”.
As for B6, the binding result was “binds”.

In another test the target is T1, K63-linked diubiquitin (Boston Biochem) (Homo sapiens (Human), UniProt P0CG48 1-76, isopeptide bond between the C-terminus of one ubiquitin and Lys63 of the other).
T1 construct: Two ubiquitin units; also called K63 diUb
Description: western blot. The procedure: Non-specific binding sites on the membranes were blocked by incubation in 5% milk in PBST for 1 hour at 25° C. with shaking. […] The membranes were washed three times in PBST with shaking. The IgGs were detected by incubating the membrane in a 1:10,000 dilution of a goat anti-human Fc fragment-specific IR Dye 800CW-conjugated secondary antibody (Rockland Immunochemicals) in 5% milk in PBST for 30 minutes at 25° C. with shaking. The membranes were then washed three times in PBST followed by one wash in PBS.
Take B7: the binding result is given as “no binding”.
